Experimental data from patent US20020160955A1 (published 2002).

Columns and labels:
Assay in all cases: competitive phage ELISA
[1] = target: T1, IGF-I P63A (G1S-A70V background) displayed on phage (human; bacteriophage M13)
T1 construct: monovalent M13 phage display; not shown: M13 gene III protein fragment (residues 249-406), the phage display carrier, and its junction to IGF-I
T1 chain: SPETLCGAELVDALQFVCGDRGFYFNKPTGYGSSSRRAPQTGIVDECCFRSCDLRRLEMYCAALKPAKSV
Procedure: (§1) Phage particles were harvested and resuspended in PBS buffer as described in Lowman, H. B., “Phage Display of Peptide Libraries on Protein Scaffolds,” in Cabilly, S. (ed.), Combinatorial Peptide Library Protocols (Humana Press Inc.: Totowa, N.J., 1998), pp. 249-264. Then phage concentrations were normalized to yield a maximal ELISA signal of 0.2-0.4 for each mutant (Lowman, in Cabilly, S. (ed.), supra). Threefold serial dilutions of soluble competitor were prepared on non-absorbent microtiter plates (Nunc, F, 96 wells) with binding buffer (0.5% TWEEN™ 20/PBS) containing phage at the previously-determined concentrations. […] After blocking, the plates containing immobilized target were washed with 0.05% TWEEN™/PBS buffer and subsequently incubated with 80 μl/well of the premixed phage-competitor solutions for 1 hour at room temperature. After washing, bound phage was detected with 80 μl/well of a solution containing a primary rabbit anti-phage polyclonal antibody and a secondary goat anti-rabbit monoclonal antibody-horseradish peroxidase conjugate in 0.5% TWEEN 20™/PBS. o-Phenylenediamine (Sigma) and tetramethylbenzidine (Kirkegaard and Perry) were used as chromogenic substrates, resulting in product detection at 492 and 450 nm, respectively. IC₅₀ values were determined by fitting the binding data to a generic saturation curve (Lowman, in Cabilly, S. (ed.), supra). […] Numbers in Table I represent mean +standard deviation of individually assessed IC₅₀ values.
(§2) At least two different clones of every mutant were tested.

[2] = target: T2, IGF-I K27A (G1S-A70V background) displayed on phage (human; bacteriophage M13, not fully specified; Displayed monovalently on M13 phage as a C-terminal fusion to the gene III fragment, which is left out of the letters.)
T2 construct: monovalent M13 phage display; not shown: Display carrier: M13 gene III fragment (residues 249-406) and its junction
T2 chain: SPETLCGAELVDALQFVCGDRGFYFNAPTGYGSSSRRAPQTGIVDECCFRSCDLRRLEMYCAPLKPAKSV
Procedure: as §1, §2

[3] = target: T3, IGF-I L14A (G1S-A70V background) displayed on phage (human; bacteriophage M13)
T3 construct: monovalent M13 phage display
T3 chain: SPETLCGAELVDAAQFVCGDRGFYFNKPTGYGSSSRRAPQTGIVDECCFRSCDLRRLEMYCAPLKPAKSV
Procedure: as §1, §2

[4] = target: T4, IGF-I L57A (G1S-A70V background) displayed on phage (human; bacteriophage M13)
T4 construct: monovalent M13 phage display; not shown: M13 gene III protein fragment (residues 249-406), the phage display carrier, and its junction to IGF-I
T4 chain: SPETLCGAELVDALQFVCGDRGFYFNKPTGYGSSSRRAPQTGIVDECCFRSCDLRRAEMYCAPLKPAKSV
Procedure: as §1, §2

[5] = target: T5, IGF-I T41A (G1S-A70V background) displayed on phage (human; bacteriophage M13)
T5 construct: monovalent M13 phage display
T5 chain: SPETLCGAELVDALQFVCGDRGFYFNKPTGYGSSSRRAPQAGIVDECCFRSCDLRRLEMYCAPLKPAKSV
Procedure: as §1, §2

[6] = target: T6, IGF-I S33A (G1S-A70V background) displayed on phage (human; bacteriophage M13)
T6 construct: monovalent M13 phage display; not shown: M13 gene III fragment (residues 249-406, display partner) and the junction to it
T6 chain: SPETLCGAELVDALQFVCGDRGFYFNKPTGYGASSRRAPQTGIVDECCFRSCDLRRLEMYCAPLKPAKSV
Procedure: as §1, §2

[7] = target: T7, IGF-I G1S-A70V displayed on phage (human; bacteriophage M13)
T7 construct: monovalent M13 phage display; template of the alanine scan; also called G1S-A70V IGF-I; wild-type-like IGF-I variant; not shown: M13 gene III fragment (residues 249-406, display partner) and the junction to it
Procedure: as §1, §2

[8] = target: T8, IGF-I R55A (G1S-A70V background) displayed on phage (human; bacteriophage M13)
T8 construct: monovalent M13 phage display
T8 chain: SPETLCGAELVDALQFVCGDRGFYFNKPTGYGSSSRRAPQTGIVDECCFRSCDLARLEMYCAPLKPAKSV
Procedure: as §1, §2

[9] = target: T9, IGF-I E58A (G1S-A70V background) displayed on phage (human; bacteriophage M13)
T9 construct: monovalent M13 phage display; not shown: M13 gene III protein fragment (residues 249-406), the phage display carrier, and its junction to IGF-I
T9 chain: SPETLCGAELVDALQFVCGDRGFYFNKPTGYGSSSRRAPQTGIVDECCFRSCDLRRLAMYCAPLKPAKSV
Procedure: as §1, §2

[10] = target: T10, IGF-I D45A (G1S-A70V background) displayed on phage (human; bacteriophage M13)
T10 construct: monovalent M13 phage display
T10 chain: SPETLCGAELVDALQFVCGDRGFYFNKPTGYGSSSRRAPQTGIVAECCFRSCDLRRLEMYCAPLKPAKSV
Procedure: as §1, §2

[11] = target: T11, IGF-I K65A (G1S-A70V background) displayed on phage (human; bacteriophage M13)
T11 construct: monovalent M13 phage display; not shown: M13 gene III protein fragment (residues 249-406), the phage display carrier, and its junction to IGF-I
T11 chain: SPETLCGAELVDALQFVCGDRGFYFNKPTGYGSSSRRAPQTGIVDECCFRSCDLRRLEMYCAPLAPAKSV
Procedure: as §1, §2

[12] = target: T12, IGF-I S1A (G1S-A70V background) displayed on phage (human; bacteriophage M13)
T12 construct: range 249-406; monovalent M13 phage display
Procedure: as §1, §2

[13] = target: T13, IGF-I R50A (G1S-A70V background) displayed on phage (human; bacteriophage M13)
T13 construct: monovalent M13 phage display
T13 chain: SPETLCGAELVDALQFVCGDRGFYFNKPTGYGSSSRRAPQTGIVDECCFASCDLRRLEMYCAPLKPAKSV
Procedure: as §1, §2

[14] = target: T14, IGF-I F23A (G1S-A70V background) displayed on phage (human; bacteriophage M13, not fully specified; Displayed monovalently on M13 phage as a C-terminal fusion to the gene III fragment, which is left out of the letters.)
T14 construct: monovalent M13 phage display; not shown: Display carrier: M13 gene III fragment (residues 249-406) and its junction
T14 chain: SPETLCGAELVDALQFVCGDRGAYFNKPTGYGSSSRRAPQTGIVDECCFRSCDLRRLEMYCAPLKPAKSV
Procedure: as §1, §2

B1: human IGFBP-1 (other, UniProt P08833 26-259, looked up)
chain: APWQCAPCSAEKLALCPPVSASCSEVTRSAGCGCCPMCALPLGAACGVATARCARGLSCRALPGEQQPLHALTRGQGACVQESDASAPHAAEAGSPESPESTEITEEELLDNFHLMAPSEEDHSILWDAISTYDGSKALHVTNIKKWKEPCRIELYRVVESLAKAQETSGEEISKFYLPNCNKNGFYHSRQCETSMDGEAGLCWCVYPWNGKRIPGSPEIRGDPNCQIYFNVQN
notes: secreted recombinant protein purified from conditioned medium
Q: How did the IC50 [1] turn out when B1 was run?
A: The IC50 was greater than 1000 nM.

Q: What about the IC50 [2] of the same binder?
A: Its IC50 is 12.8 nM.

Q: What about the IC50 [3] of the same binder?
A: Its IC50 is 36.7 nM.

Q: And the IC50 [4]?
A: Its IC50 is 21.8 nM.

Q: What about the IC50 [5] of the same binder?
A: Its IC50 is 13.7 nM.

Q: And the IC50 [6]?
A: The IC50 was 9.1 nM.

Q: And the IC50 [7]?
A: The IC50 was 8.2 nM.

Q: And the IC50 [8]?
A: The IC50 was 9 nM.

Q: What about the IC50 [9] of the same binder?
A: Its IC50 is 11.9 nM.

Q: What about the IC50 [10] of the same binder?
A: The IC50 was 4.7 nM.

Q: And the IC50 [11]?
A: Its IC50 is 12.4 nM.

Q: What about the IC50 [12] of the same binder?
A: Its IC50 is 5.2 nM.

Q: And the IC50 [13]?
A: Its IC50 is 16.2 nM.

Q: What about the IC50 [14] of the same binder?
A: Its IC50 is 10.9 nM.
